Measurements: patent publication US5786191A, “Cloning and expression of complementary DNAs for multiple members of the human cytochrome P450 2C subfamily” (priority 1994, dated 1998)

Tests used:
Format in all cases: biochemical
[1] = Mephenytoin 4'-hydroxylase assay, recombinant human CYP2C yeast microsomes, S-enantiomer; details: for R/S Ratio of mephenytoin 4'-hydroxylase activity: recombinant yeast microsomes (Table III); for Mephenytoin 4'-Hydroxylase Activity, S: yeast microsomes + P450 reductase, phospholipid, cytochrome b5 2:1, 0.4 mM substrate, 37° C., 30 min, liver microsomes unfortified, phosphate buffer, means ± SE
Description: (§1) Purified or recombinant yeast microsomes (10-50 pmol) were preincubated with dilauroylphosphatidylcholine (15 μg per 50 pmol P450), P450 reductase (500 U per 50 mol P450), and human cytochrome b5 (2:1 molar ratio when added). The reconstituted mixture was preincubated for 5 min at 37° C., and then placed on ice. […] The mixture was then incubated at 37° with shaking for 3 min, and the reaction started with the addition of 2 mM NADPH and terminated after 30 min with an equal volume of methanol. […] Reaction volumes were generally 0.25 ml except when the volume of recombinant purified cytochrome or yeast microsomes was greater than 50 μl. In these cases, the volume was increased to 0.5 ml to limit the volume of glycerol from the purified preparation to <4% of the final volume.
(§2) At the end of the incubation period, the reactions were terminated with an equal volume of methanol. The incubation mixture was centrifuged at 10,000 g for 10 min and an aliquot assayed directly using HPLC without extraction. Samples with particularly low activity were concentrated by lyophilization and redissolved in a small volume of methanol:water (1:1) before assay. The HPLC system consisted of a reverse phase C18 (10 μm) Versapak, 300 mm×4.1 mm column (Altech Associates, Deerfield, Ill.) using an isocratic solvent consisting of methanol:water (45:55) with a flow rate was kept of 1 ml/min for 25 min.

[2] = Mephenytoin 4'-hydroxylase assay, recombinant human CYP2C yeast microsomes, R-enantiomer; details: yeast microsomes + P450 reductase, phospholipid, cytochrome b5 2:1; 0.4 mM substrate; 37° C., 30 min; liver microsomes unfortified, phosphate buffer; means ± SE
Description: as §1, §2

[3] = Mephenytoin 4'-hydroxylase assay, purified recombinant P450s in reconstituted system, S-enantiomer; details: for R/S Ratio of mephenytoin 4'-hydroxylase activity: purified P450s (Table IV); for Mephenytoin 4'-Hydroxylase Activity, S: purified P450s, reconstituted system, triplicate, means ± SE, blank not subtracted
Description: as §1, §2

[4] = Mephenytoin 4'-hydroxylase assay, purified recombinant P450s in reconstituted system, R-enantiomer; details: triplicate, means ± SE, blank not subtracted
Description: as §1, §2

[5] = Tolbutamide hydroxylase assay, purified reconstituted P450s; details: blank (22 ± 5) subtracted, means ± SE
Description: Tolbutamide hydroxylase activity was measured according to Knodell et al., J. Pharmacol. Exper. Ther. 241:1112-1119 (1987), with several modifications. Yeast microsomes (1 mg protein) were preincubated with 300 pmol hamster P450 reductase in 0.2 ml of the incubation buffer (below) for 3 min at 37° C. The reaction was then placed on ice and incubated in 0.2 ml of 50 mM HEPES buffer (pH 7.4) containing 1.5 mM MgCl2, 0.1 mM EDTA in a final volume of 1 ml and 1 mM sodium tolbutamide. The reaction was initiated with 0.5 mM NADPH. Human liver microsomes (0.22 mg protein) were incubated without reductase. Incubations with reconstituted recombinant P450s contained 50 pmol purified P450 enzyme, 150 pmol P450 reductase, and 15 μg dilauroylphosphatidylcholine, and were performed in 100 mM potassium phosphate buffer (pH 7.4). Reactions were terminated after 60 min at 37° C. by the addition of 50 μl of 4N HCl, followed by extraction with 3 ml of water-saturated ethyl acetate. The ethyl acetate extracts were dried under nitrogen at 40° C., the residue resolubilized in 200 μl methanol, and 4-hydroxytolbutamide then assayed using HPLC by injecting 50 μl of the solubilized extract onto a μBONDAPAK C18 column (4.6×300 mm) using 0.05% phosphoric acid, pH 2.6: acetonitrile (6:4, v/v) as the mobile phase with a flow rate of 1 ml/min. The column eluate was monitored at 230 nm and rates of product formation were determined from standard curves prepared by adding varying amounts of 4-hydroxytolbutamide to incubations conducted without NADPH. […] Samples were analyzed in triplicate.

[6] = Tolbutamide hydroxylase assay, recombinant human CYP2C yeast microsomes; details: for Tolbutamide Hydroxylase Activity per mg protein: 1 mg yeast microsomal protein + P450 reductase, or 0.2 mg liver microsomal protein without reductase; for Tolbutamide Hydroxylase Activity per mg protein / Tolbutamide Hydroxylase Activity per nmol P450: means ± SE; for Tolbutamide Hydroxylase Activity per nmol P450: adjusted for P450 content
Description: Yeast microsomes (1 mg protein) were preincubated with 300 pmol hamster P450 reductase in 0.2 ml of the incubation buffer (below) for 3 min at 37° C. The reaction was then placed on ice and incubated in 0.2 ml of 50 mM HEPES buffer (pH 7.4) containing 1.5 mM MgCl2, 0.1 mM EDTA in a final volume of 1 ml and 1 mM sodium tolbutamide. The reaction was initiated with 0.5 mM NADPH. Human liver microsomes (0.22 mg protein) were incubated without reductase. Incubations with reconstituted recombinant P450s contained 50 pmol purified P450 enzyme, 150 pmol P450 reductase, and 15 μg dilauroylphosphatidylcholine, and were performed in 100 mM potassium phosphate buffer (pH 7.4). Reactions were terminated after 60 min at 37° C. by the addition of 50 μl of 4N HCl, followed by extraction with 3 ml of water-saturated ethyl acetate. […] The column eluate was monitored at 230 nm and rates of product formation were determined from standard curves prepared by adding varying amounts of 4-hydroxytolbutamide to incubations conducted without NADPH. […] Samples were analyzed in triplicate.

B1: 2C8: recombinant human P450 2C8 (clones 7b and 7c, Thr^130 Ile^264 variant) expressed in yeast (protein, UniProt P10632 1-490, looked up)
Cytochrome P450 2C8: MEPFVVLVLCLSFMLLFSLWRQSCRRRKLPPGPTPLPIIGNMLQIDVKDICKSFTNFSKVYGPVFTVYFGMNPIVVFHGYEAVKEALIDNGEEFSGRGNSPISQRITKGLGIISSNGKRWKEIRRFSLTTLRNFGMGKRSIEDRVQEEAHCLVEELRKTKASPCDPTFILGCAPCNVICSVVFQKRFDYKDQNFLTLMKRFNENFRILNSPWIQVCNNFPLLIDCFPGTHNKVLKNVALTRSYIREKVKEHQASLDVNNPRDFIDCFLIKMEQEKDNQKSEFNIENLVGTVADLFVAGTETTSTTLRYGLLLLLKHPEVTAKVQEEIDHVIGRHRSPCMQDRSHMPYTDAVVHEIQRYSDLVPTGVPHAVTTDTKFRNYLIPKGTTIMALLTSVLHDDKEFPNPNIFDPGHFLDKNGNFKKSDYFMPFSAGKRICAGEGLARMELFLFLTTILQNFNLKSVDDLKNLNTTAVTKGIVSLPPSYQICFIPV
[1]
  R/S Ratio of mephenytoin 4'-hydroxylase activity: 0.4
  Mephenytoin 4'-Hydroxylase Activity, S: 0.037 ± 0.001 nmol/min/nmol P450
[2]
  Mephenytoin 4'-Hydroxylase Activity, R: 0.016 ± 0.001 nmol/min/nmol P450
[3]
  R/S Ratio of mephenytoin 4'-hydroxylase activity: 0.4
  Mephenytoin 4'-Hydroxylase Activity, S: 0.057 ± 0.009 nmol/min/nmol P450
[4]
  Mephenytoin 4'-Hydroxylase Activity, R: 0.023 ± 0.004 nmol/min/nmol P450
[5]
  Tolbutamide Hydroxylase Activity: 12 ± 4 pmol/min/nmol P450
[6]
  Tolbutamide Hydroxylase Activity per mg protein: 8.5 ± 0.2 nmol/min/mg protein
  Tolbutamide Hydroxylase Activity per nmol P450: 0.11 ± 0.003 nmol/min/nmol P450

B2: 2C9-Ile^359 (65): recombinant human P450 2C9 allelic variant, clone 65 (protein, UniProt P11712 1-490, looked up)
Cytochrome P450 2C9: MDSLVVLVLCLSCLLLLSLWRQSSGRGKLPPGPTPLPVIGNILQIGIKDISKSLTNLSKVYGPVFTLYFGLKPIVVLHGYEAVKEALIDLGEEFSGRGIFPLAERANRGFGIVFSNGKKWKEIRRFSLMTLRNFGMGKRSIEDRVQEEARCLVEELRKTKASPCDPTFILGCAPCNVICSIIFHKRFDYKDQQFLNLMEKLNENIKILSSPWIQICNNFSPIIDYFPGTHNKLLKNVAFMKSYILEKVKEHQESMDMNNPQDFIDCFLMKMEKEKHNQPSEFTIESLENTAVDLFGAGTETTSTTLRYALLLLLKHPEVTAKVQEEIERVIGRNRSPCMQDRSHMPYTDAVVHEVQRYIDLLPTSLPHAVTCDIKFRNYLIPKGTTILISLTSVLHDNKEFPNPEMFDPHHFLDEGGNFKKSKYFMPFSAGKRICVGEALAGMELFLFLTSILQNFNLKSLVDPKNLDTTPVVNGFASVPPFYQLCFIPV
[1]
  R/S Ratio of mephenytoin 4'-hydroxylase activity: 0.9
  Mephenytoin 4'-Hydroxylase Activity, S: 0.043 ± 0.000 nmol/min/nmol P450
[2]
  Mephenytoin 4'-Hydroxylase Activity, R: 0.041 ± 0.005 nmol/min/nmol P450
[3]
  R/S Ratio of mephenytoin 4'-hydroxylase activity: 0.77
  Mephenytoin 4'-Hydroxylase Activity, S: 0.081 ± 0.006 nmol/min/nmol P450
[4]
  Mephenytoin 4'-Hydroxylase Activity, R: 0.063 ± 0.003 nmol/min/nmol P450
[5]
  Tolbutamide Hydroxylase Activity: 122 + 29 pmol/min/nmol P450
[6]
  Tolbutamide Hydroxylase Activity per mg protein: 169.8 ± 7.4 nmol/min/mg protein
  Tolbutamide Hydroxylase Activity per nmol P450: 3.4 ± 0.15 nmol/min/nmol P450
[6]; recombinant microsomes adjusted for P450 content
  Tolbutamide turnover number of Ile^359 allele relative to Leu^359 allele of 2C9: 3 fold
